B1: BG87P-21 (antibody, V domains shown)
VH: QVQLVQSGAEVKKPGASVKVSCKASGYSFTDYHINWVRQAPGQRLEWMGWIYPGSGYTKYNEKFKGRVTITRDTSASTAYMELSSLRSEDTAVYYCARSGIYHYVSSYYFDHWGKGTTVTVSS
VL: DIQMTQSPSTLSASVGDRVTITCKASQDVGTAVAWYQQKPGKAPKLLIYWASTRHTGVPSRFSGSGSGTEFTLTISSLQPDDFATYYCQQYSSYTFGGGTKVEIK
notes: 2nd round humanized variant
B2: BG87P-22 (antibody, V domains shown)
VH: B1 VH with Y95F
VL: B1 VL
B3: BG87P-25 (antibody, V domains shown)
VH: B1 VH with V2I, I70L
VL: B1 VL
B4: BG87P-26 (antibody, V domains shown)
VH: B1 VH with V2I, Y95F
VL: B1 VL
B5: BG87P-24 (antibody, V domains shown)
VH: B1 VH with I70L
VL: B1 VL
B6: BG87P-23 (antibody, V domains shown)
VH: B1 VH with V2I
VL: B1 VL
B7: BG87P-z0 (antibody, V domains shown)
VH: B1 VH with S28T, G66V
VL: B1 VL
notes: Humanized, no back mutations; also called BG87P-20
B8: BG87P-27 (antibody, V domains shown)
VH: B1 VH with I70L, Y95F
VL: B1 VL
B9: anti-CLDN6 chimeric BG87P (antibody, V domains shown)
VH: QIQLQQSGPELVKPGASVKISCKASGYSFTDYHINWVKQRPGQGLEWIGWIYPGSGYTKYNEKFKVKATLTVDTSSSTAYMHLTSLTSEDSAVYFCARSGIYHYVSSYYFDHWGQGTTLTVSS
VL: DIVMTQSHTFMSTSVGDRVSITCKASQDVGTAVAWYQQKPGQSPKLLIYWASTRHTGVPDRFTGSGSGTDFTLTISNVQSEDLADYFCQQYSSYTFGGGTKLEIK
notes: expressed in HEK293T; also called chBG87P; ChBG87P
B10: BG87P-33 (antibody, V domains shown)
VH: EVQLQESGGGLVQPGGSLRLSCAASGYSFTDYHINWVRQAPGKGLEWVSYIYPGSGHTKYNEKFKGRFTISRDTSKNTAYLQMNSLRAEDTAVYYCARSGIYHYVSSYYFDHWGQGTLVTVSS
VL: B1 VL with V29A, T31S
notes: Framework-swapped variant; also called BG87-33
B11: BG87P-31 (antibody, V domains shown)
VH: B1 VH with V5Q, V11T, P41S, W50Y, Y57H, Y60K
VL: B1 VL with V29A, T31S, Y49K
notes: Solubility engineering variant of BG87P-21
B12: BG87P-32 (antibody, V domains shown)
VH: B1 VH with V5Q, V11T, P41S, W50Y, Y57H, Y60K
VL: B1 VL with V29A, T31S
notes: as for B11
B13: BG87P-34 (antibody, V domains shown)
VH: B10 VH with T30S, S49G, K76S
VL: B1 VL with T10S, V29A, T31S, E70D, D81E, V102L
notes: Final lead anti-CLDN6 clone (IGHV3-23 / IGKV1-39 framework); also called BG87-34
B14: BG87P-m4 (antibody, V domains shown)
VH: B9 VH with H33A
VL: B9 VL
notes: Variant of chBG87P with H33A
B15: BG87P-m3 (antibody, V domains shown)
VH: B9 VH with V66G
VL: B9 VL
notes: PTM removal variant of chBG87P with VH V65G

Where a chain is given by its changes, count along the chain named. Numbers in names are those of the source.

For one assay, the target named is T1, human claudin 6 (CLDN6) (human, UniProt P56747 1-220).
T1 construct: also called human CLDN6; hCLDN6
T1 sequence: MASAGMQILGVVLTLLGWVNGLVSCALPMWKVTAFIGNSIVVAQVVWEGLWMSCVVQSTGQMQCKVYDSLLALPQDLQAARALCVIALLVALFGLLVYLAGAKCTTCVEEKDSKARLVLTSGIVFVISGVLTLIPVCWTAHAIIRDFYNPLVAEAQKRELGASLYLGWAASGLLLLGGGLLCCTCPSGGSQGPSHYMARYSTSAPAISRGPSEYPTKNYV
Put plainly: flow cytometry, PA-1 cells. On the procedure:
(§1) For affinity determination, CLDN6 over-expressing HEK293T cells and cancer cell line PA-1 which express high levels of human CLDN6 were used to evaluate the binding activity of BG87P related engineering variants. Live cells were seeded in 96-well plate, and were incubated with a series of dilutions of chBG87P and engineered variants thereof. Goat anti-human IgG was used as second antibody to detect antibody binding to the cell surface. EC50 values for dose-dependent binding to CLDN6 expressing cell lines were determined by fitting the dose-response data to the four-parameter logistic model with GraphPad Prism. Cell binding activity of 1st round of BG87P humanization variants against HEK293T/human CLDN6 were compared to chBG87P and shown in FIG. 1A.
In general terms: Flow cytometry measures light scatter and fluorescence of single cells or particles in a stream.
In the case of B1, the “Top MFI Mean” value is 76500 MFI.
On to B2, for which the “Top MFI Mean” value came out at 67800 MFI.

In the next assay the target is T1, human claudin 6 (CLDN6). Kind of assay: flow cytometry, PA-1 cells; ratio to chBG87P. On the procedure: as §1
B1: the “Emax ratio to BG87P” value was determined as 0.61.
Take B3: the “Emax ratio to BG87P” value worked out at 0.59.
Turning to B4, the “Emax ratio to BG87P” value was determined as 0.54.
Still for that read-out and setting: as for B2, the figure is 0.54.
B5: the “Emax ratio to BG87P” value is 0.5.
Turning to B6, the “Emax ratio to BG87P” value was 0.58.
In the case of B7, the “Emax ratio to BG87P” value is 0.43.
On to B8, for which the “Emax ratio to BG87P” value was 0.53.
B9: the “Emax ratio to BG87P” value turned out to be 1.

A further assay deals with T1, human claudin 6 (CLDN6). Kind of assay: flow cytometry, HEK293-hCLDN6 cells; ratio to chBG87P.
As for B1, the “FACS-Ec50 ratio to BG87P” value was 0.91.
The same measure, in the same setting: for B10 the value was 2.45; for B11, 1.6.
For the molecule B12, the “FACS-Ec50 ratio to BG87P” value is 1.31.
As to B13, the “FACS-Ec50 ratio to BG87P” value was found to be 1.17.
As for B9, the “FACS-Ec50 ratio to BG87P” value was 1.

A further assay addresses T1, human claudin 6 (CLDN6). Put plainly: flow cytometry, HEK293T-hCLDN6 cells; ratio to chBG87P.
Take B1: the “FACS Emax ratio to BG87P” value stood at 0.66.
Regarding B10, the “FACS Emax ratio to BG87P” value came to 0.91.
Take B11: the “FACS Emax ratio to BG87P” value stood at 0.76.
For the molecule B12, the “FACS Emax ratio to BG87P” value was 0.63.
As to B13, the “FACS Emax ratio to BG87P” value was determined as 1.03.
Turning to B9, the “FACS Emax ratio to BG87P” value is 1.

The target of another assay is T2, cyno CLDN6 (cyno).
T2 construct: whole, on cells; also called cynomolgus CLDN6
Put plainly: flow cytometry, HEK293T-cyno-CLDN6 cells; ratio to chBG87P.
As for B1, the “FACS Emax ratio to BG87P” value was 0.8.
Take B10: the “FACS Emax ratio to BG87P” value amounted to 0.75.
Take B13: the “FACS Emax ratio to BG87P” value is 1.
With B9, the “FACS Emax ratio to BG87P” value was found to be 1.

For the next assay, the target named is T1, human claudin 6 (CLDN6). Kind of assay: flow cytometry, HEK293T-human CLDN6 cells; ratio to chBG87P. On the procedure: as §1
B1: the “Emax ratio to BG87P” value turned out to be 0.78.
For B3, the “Emax ratio to BG87P” value is 0.74.
As to B4, the “Emax ratio to BG87P” value worked out at 0.77.
With B2, the “Emax ratio to BG87P” value turned out to be 0.71.
As to B5, the “Emax ratio to BG87P” value was determined as 0.73.
For the molecule B6, the “Emax ratio to BG87P” value was determined as 0.77.
In the case of B7, the “Emax ratio to BG87P” value is 0.5.
For B8, the “Emax ratio to BG87P” value came to 0.68.
B9: the “Emax ratio to BG87P” value was 1.
As for B14, the “Emax ratio to BG87P” value was determined as 0.74.
For the molecule B15, the “Emax ratio to BG87P” value stood at 1.18.

The values above are taken from patent US20240301061A1 (BEIGENE SWITZERLAND, published 2024).
